± gives the uncertainty stated by the source.

Among the data in the Human Domainome abundance scans (Beltran et al. 2025) are abundance fitness values, retold here.

This data set can be described thus: abundance fitness (aPCA) (normalised: wild type 0, dead -1); higher = more abundant; growth selection in yeast, the domain comes from the species named. The following applies: Homo sapiens.
Substance “Scaffold attachment factor B2 R28T, Q14151” displayed an abundance fitness of -0.045 ± 0.12.

In turn, “Scaffold attachment factor B2 R28W, Q14151” had an abundance fitness of -0.14 ± 0.086.

As to “Scaffold attachment factor B2 R28Y, Q14151”, the abundance fitness is -0.377 ± 0.18.

As for “Scaffold attachment factor B2 R29C, Q14151”, the abundance fitness is -0.474 ± 0.31.

“Scaffold attachment factor B2 R29D, Q14151” showed an abundance fitness of 0.089 ± 0.093.

“Scaffold attachment factor B2 R29E, Q14151” registered an abundance fitness of 0.113 ± 0.095.

“Scaffold attachment factor B2 R29F, Q14151”: the abundance fitness is -0.237 ± 0.15.

In the case of “Scaffold attachment factor B2 R29G, Q14151”, the abundance fitness was -0.127 ± 0.074.

With “Scaffold attachment factor B2 R29H, Q14151”, the abundance fitness was -0.099 ± 0.15.

For the substance “Scaffold attachment factor B2 R29I, Q14151”, the abundance fitness was -0.211 ± 0.15.

Regarding “Scaffold attachment factor B2 R29K, Q14151”, the abundance fitness was -0.038 ± 0.099.

“Scaffold attachment factor B2 R29L, Q14151” returned an abundance fitness of -0.288 ± 0.07.

“Scaffold attachment factor B2 R29M, Q14151” returned an abundance fitness of -0.288 ± 0.13.

Substance “Scaffold attachment factor B2 R29N, Q14151” registered an abundance fitness of -0.016 ± 0.11.

On to “Scaffold attachment factor B2 R29P, Q14151”, for which the abundance fitness was -0.117 ± 0.13.

“Scaffold attachment factor B2 R29Q, Q14151”: the abundance fitness is -0.162 ± 0.1.

Substance “Scaffold attachment factor B2 R29S, Q14151” registered an abundance fitness of -0.097 ± 0.1.

“Scaffold attachment factor B2 R29T, Q14151” came in with an abundance fitness of -0.01 ± 0.16.

The substance “Scaffold attachment factor B2 R29V, Q14151” came in with an abundance fitness of -0.233 ± 0.08.

Turning to “Scaffold attachment factor B2 R29W, Q14151”, the abundance fitness was -0.246 ± 0.083.

On to “Scaffold attachment factor B2 R29Y, Q14151”, for which the abundance fitness was -0.4 ± 0.12.

As to “Scaffold attachment factor B2 R34A, Q14151”, the abundance fitness came to 0.049 ± 0.079.

Turning to “Scaffold attachment factor B2 R34D, Q14151”, the abundance fitness was -0.055 ± 0.12.

For “Scaffold attachment factor B2 R34F, Q14151”, the abundance fitness is -0.673 ± 0.23.

In turn, “Scaffold attachment factor B2 R34G, Q14151” came in with an abundance fitness of 0.012 ± 0.077.

As for “Scaffold attachment factor B2 R34H, Q14151”, the abundance fitness is -0.205 ± 0.13.

The substance “Scaffold attachment factor B2 R34I, Q14151” came in with an abundance fitness of -0.75 ± 0.15.

“Scaffold attachment factor B2 R34K, Q14151” yielded an abundance fitness of -0.184 ± 0.12.

As to “Scaffold attachment factor B2 R34L, Q14151”, the abundance fitness was -0.473 ± 0.089.

With “Scaffold attachment factor B2 R34M, Q14151”, the abundance fitness is -0.31 ± 0.1.

The substance “Scaffold attachment factor B2 R34N, Q14151” displayed an abundance fitness of -0.456 ± 0.33.

“Scaffold attachment factor B2 R34P, Q14151” displayed an abundance fitness of 0.02 ± 0.13.

In turn, “Scaffold attachment factor B2 R34Q, Q14151” displayed an abundance fitness of 0.003 ± 0.081.

On to “Scaffold attachment factor B2 R34S, Q14151”, for which the abundance fitness worked out at 0.14 ± 0.087.

Turning to “Scaffold attachment factor B2 R34T, Q14151”, the abundance fitness turned out to be 0.157 ± 0.099.

Substance “Scaffold attachment factor B2 R34V, Q14151” returned an abundance fitness of -0.45 ± 0.087.

Consider “Scaffold attachment factor B2 R34W, Q14151”, for which the abundance fitness was -0.679 ± 0.086.

“Scaffold attachment factor B2 R34Y, Q14151” displayed an abundance fitness of -0.616 ± 0.12.

In the case of “Scaffold attachment factor B2 R39G, Q14151”, the abundance fitness is -0.606 ± 0.14.

Substance “Scaffold attachment factor B2 R45C, Q14151” had an abundance fitness of -0.686 ± 0.14.

“Scaffold attachment factor B2 R45D, Q14151” gave an abundance fitness of -0.52 ± 0.13.

As for “Scaffold attachment factor B2 R45E, Q14151”, the abundance fitness was -0.411 ± 0.097.

For the substance “Scaffold attachment factor B2 R45F, Q14151”, the abundance fitness was -0.784 ± 0.21.

As for “Scaffold attachment factor B2 R45G, Q14151”, the abundance fitness is -0.486 ± 0.08.

With “Scaffold attachment factor B2 R45H, Q14151”, the abundance fitness is -0.721 ± 0.23.

The substance “Scaffold attachment factor B2 R45K, Q14151” displayed an abundance fitness of -0.374 ± 0.12.

In turn, “Scaffold attachment factor B2 R45L, Q14151” had an abundance fitness of -0.201 ± 0.078.

In turn, “Scaffold attachment factor B2 R45M, Q14151” displayed an abundance fitness of -0.66 ± 0.29.

As to “Scaffold attachment factor B2 R45N, Q14151”, the abundance fitness is -0.99 ± 0.24.

As for “Scaffold attachment factor B2 R45P, Q14151”, the abundance fitness was -0.682 ± 0.11.

“Scaffold attachment factor B2 R45Q, Q14151” came in with an abundance fitness of -0.326 ± 0.091.

“Scaffold attachment factor B2 R45S, Q14151” registered an abundance fitness of -0.509 ± 0.092.

In turn, “Scaffold attachment factor B2 R45T, Q14151” showed an abundance fitness of -0.576 ± 0.11.

“Scaffold attachment factor B2 R45V, Q14151” came in with an abundance fitness of -0.565 ± 0.095.

The substance “Scaffold attachment factor B2 R45W, Q14151” gave an abundance fitness of -0.709 ± 0.085.

“Scaffold attachment factor B2 R59A, Q14151” registered an abundance fitness of -0.465 ± 0.092.

“Scaffold attachment factor B2 R59C, Q14151” came in with an abundance fitness of -0.583 ± 0.19.

On to “Scaffold attachment factor B2 R59D, Q14151”, for which the abundance fitness was -0.54 ± 0.24.

“Scaffold attachment factor B2 R59E, Q14151” showed an abundance fitness of -0.294 ± 0.099.

The substance “Scaffold attachment factor B2 R59G, Q14151” had an abundance fitness of -0.23 ± 0.11.

“Scaffold attachment factor B2 R59H, Q14151” yielded an abundance fitness of -0.474 ± 0.22.

Substance “Scaffold attachment factor B2 R59I, Q14151” showed an abundance fitness of -1.2 ± 0.22.

In turn, “Scaffold attachment factor B2 R59K, Q14151” displayed an abundance fitness of -0.41 ± 0.19.

Turning to “Scaffold attachment factor B2 R59L, Q14151”, the abundance fitness is -0.771 ± 0.1.

For the substance “Scaffold attachment factor B2 R59M, Q14151”, the abundance fitness was -0.643 ± 0.12.

The substance “Scaffold attachment factor B2 R59N, Q14151” gave an abundance fitness of -0.623 ± 0.32.

In the case of “Scaffold attachment factor B2 R59P, Q14151”, the abundance fitness is -0.249 ± 0.094.

For “Scaffold attachment factor B2 R59Q, Q14151”, the abundance fitness is -0.595 ± 0.097.

With “Scaffold attachment factor B2 R59S, Q14151”, the abundance fitness was -0.322 ± 0.087.

Substance “Scaffold attachment factor B2 R59T, Q14151” showed an abundance fitness of -0.223 ± 0.15.

Substance “Scaffold attachment factor B2 R59V, Q14151” registered an abundance fitness of -0.496 ± 0.097.

Regarding “Scaffold attachment factor B2 R59W, Q14151”, the abundance fitness was -1.25 ± 0.15.

In turn, “Scaffold attachment factor B2 S31A, Q14151” registered an abundance fitness of -0.051 ± 0.1.

In the case of “Scaffold attachment factor B2 S31C, Q14151”, the abundance fitness was -0.415 ± 0.16.

“Scaffold attachment factor B2 S31D, Q14151” registered an abundance fitness of -0.086 ± 0.12.

In turn, “Scaffold attachment factor B2 S31E, Q14151” showed an abundance fitness of -0.01 ± 0.092.

“Scaffold attachment factor B2 S31F, Q14151” showed an abundance fitness of -0.488 ± 0.16.

In turn, “Scaffold attachment factor B2 S31G, Q14151” returned an abundance fitness of -0.208 ± 0.076.

As for “Scaffold attachment factor B2 S31H, Q14151”, the abundance fitness is -0.194 ± 0.09.

“Scaffold attachment factor B2 S31K, Q14151” showed an abundance fitness of -0.221 ± 0.11.

Turning to “Scaffold attachment factor B2 S31L, Q14151”, the abundance fitness is -0.312 ± 0.1.

As for “Scaffold attachment factor B2 S31M, Q14151”, the abundance fitness was -0.341 ± 0.11.

“Scaffold attachment factor B2 S31N, Q14151” came in with an abundance fitness of -0.027 ± 0.11.

Substance “Scaffold attachment factor B2 S31Q, Q14151” came in with an abundance fitness of -0.311 ± 0.095.

The substance “Scaffold attachment factor B2 S31T, Q14151” registered an abundance fitness of -0.225 ± 0.48.

On to “Scaffold attachment factor B2 S31Y, Q14151”, for which the abundance fitness was -0.629 ± 0.12.

Substance “Scaffold attachment factor B2 S54A, Q14151” yielded an abundance fitness of -0.037 ± 0.077.

Regarding “Scaffold attachment factor B2 S54C, Q14151”, the abundance fitness is -0.44 ± 0.14.

As for “Scaffold attachment factor B2 S54D, Q14151”, the abundance fitness was -0.1 ± 0.14.

“Scaffold attachment factor B2 S54E, Q14151” yielded an abundance fitness of -0.038 ± 0.11.

Consider “Scaffold attachment factor B2 S54G, Q14151”, for which the abundance fitness is -0.101 ± 0.071.

In turn, “Scaffold attachment factor B2 S54H, Q14151” showed an abundance fitness of -0.191 ± 0.18.

“Scaffold attachment factor B2 S54I, Q14151” returned an abundance fitness of -0.003 ± 0.21.

In the case of “Scaffold attachment factor B2 S54K, Q14151”, the abundance fitness was found to be 0.031 ± 0.13.

Turning to “Scaffold attachment factor B2 S54L, Q14151”, the abundance fitness was -0.167 ± 0.1.

Substance “Scaffold attachment factor B2 S54M, Q14151” returned an abundance fitness of -0.15 ± 0.2.
